{
  "source": "patent US20250276077A1",
  "about": "“EPHA2 ANTIBODIES” (Immunome, Inc., priority 2022, published 2025)",
  "molecules": {"B1": {"name": "AB-009807: sibling of AB-008873; VH SEQ ID NO: 70, VL SEQ ID NO: 81 (antibody, V domains shown)", "VH": "QVQLQQWGAGLLKPSETLSLTCAVYGGSFNDYYWSWIRQPPGKGLEWIGEVNHSGSTSYNPSLKSRVTISVDTSKNQFSLKLSSVTAADTAVYYCAKPFRPHCTNGVCYSGDAFDIWGQGTMVTVSS", "VL": "SYVLTQPPSVSVAPGQTARITCGGNNIGSKNVHWYQQKPGQAPALVVYDDSDRPSGIPEQFSGSNSGNTATLTISRVEAGDEADYYCQVWDSSSDHLVFGGGTKLTVL"}, "B2": {"name": "AB-010671: VH SEQ ID NO: 624, VL SEQ ID NO: 689; H107TI; L29SY; L92SH relative to AB-010357 (antibody, V domains shown)", "VH": "QVQLQQWGAGLLKPSETLSLTCAVYGGSFSDYYWSWIRQPPGKGLEWIGEINHRGSINYNNYNPSLKSRVTISVDTSKNQFSLKLSSVTAADTAVYYCAKPLRPHCINGVCYSGDAFDIWGQGTMVTVAS", "VL": "B1 VL with S29Y, A44V, S92H, L97V"}, "B3": {"name": "AB-010685: VH SEQ ID NO: 638, VL SEQ ID NO: 703; H107TI; L29SY; L92SH relative to AB-010361 (antibody, V domains shown)", "VH": "B2 VH with D31G", "VL": "B1 VL with S29Y, A44V, S92H, L97V"}, "B4": {"name": "EphrinA1-Fc: natural ligand EphrinA1 fused to Fc (Acro, EF1-H5251) (protein)", "chain": "DRHTVFWNSSNPKFRNEDYTIHVQLNDYVDIICPHYEDHSVADAAMEQYILYLVEHEEYQLCQPQSKDQVRWQCNRPSAKHGPEKLSEKFQRFTPFTLGKEFKEGHSYYYISKPIHQHEDRCLRLKVTVSGKITHSPQAHDNPQEKRLAADDPEVRVLHSIGHS", "modifications": "left off: a dimerising Fc or GST"}, "B5": {"name": "Ephrin-A1 (protein)", "chain": "B4 chain", "modifications": "left off: a dimerising Fc or GST"}},
  "key": {"A549 cells [1]": {"test_system": "A549 cells", "test": "Flow screen (in vitro) surface binding", "set-up": "species or system human", "settings": "flow cytometry; comparisons are to AB-008873", "method": "Surface binding of the antibodies to in vitro grown cell lines was assessed by flow cytometry. Tumor cells were detached from their culture plate using Versene and counted. Cells were staining in BSA-containing buffer with primary antibody for 30 minutes at 4° C. with shaking. Following, cells were washed and stained with secondary PE-labeled antibody for 30 minutes at 4° C. with shaking. Before analysis on an Intellicyt iQue3 scanner, cells were counterstained with DAPI. MedFI values from live, single cells was expressed as fold over isotype control."}, "A549 cells [2]": {"test_system": "A549 cells", "test": "ADCP with RAW264.7 mouse macrophage effector cells", "assay_type": "cell-based, human", "method": "For antibody-dependent cellular phagocytosis (ADCP), the cell membranes of target cells were labeled with green fluorescent membrane dye preceding opsonization with different concentrations of antibody at room temperature for 30 minutes. RAW264.7 mouse macrophage (effector) cells were then added at a 1:1 ratio with the target cells and co-cultured at 37° C. and 5% CO2 for 2 hours. After incubation, the cell mixture was dissociated with 2 mM ethylenediaminetetraacetic acid (EDTA, pH 7.4). The cell suspension was then washed several times in an isotonic salt solution and probed with a commercially available anti-CD11b antibody, conjugated with Allophycocyanin (APC). After a 30-minute incubation at 4° C. with this antibody, the cell suspension was washed again before being analyzed by flow cytometry."}, "A549 cells [3]": {"test_system": "A549 cells", "test": "ADCC (KILR target cells, NK92 CD16 chimera effector cells)", "assay_type": "cell-based, human", "settings": "for ADCC activity on A549 cells (in words): comparisons are to AB-008873 or parent; for EC50 / ADCC - dAct rel. parent, Trial 1 / ADCC - dAct rel. parent, Trial 2: A549 tumor cells; for ADCC - dAct rel. parent, Trial 1: Trial 1, relative to parent antibody; for ADCC - dAct rel. parent, Trial 2: Trial 2, relative to parent antibody", "method": "(§1) To detect Antibody-dependent cellular cytotoxicity (ADCC), KILR™-transfected target cells were opsonized with different concentrations of the antibody at room temperature for 20 minutes. Following, NK92 cells carrying a mouse extracellular-human intracellular CD16 chimera were added at a 5:1 ratio of effector to target cells. After a 4 h co-culture at 37° C. and 5% CO2, pre-mixed KILR™ detection reagent was added to each well at equal volume and allowed to incubate for 30 min at room temperature in the dark before reading luminescence on a pate reader. Cytotoxicity was calculated after background (spontaneous release) subtraction and expressed as percent of a maximum lysis control."}, "[4]": {"test_system": "SKOV3, MDAMB231, and PC3 tumor cells", "quoted_text": "This experiment tested the cytotoxicity of antibody-drug conjugates (“conjugates”) each comprising an EphA2 antibody directly conjugated via a lysine to a ZymeLink™ Auristatin (ZLA) payload having structure (1) as disclosed above on SKOV3, MDAMB231, and PC3 tumor cells. […] The average drug to antibody ratio (DAR) for each molecule ranges from 2.9 and 3.6 as determined by Mass Spectrometry. […] 2,500 cells were added to each well of a 96 well plate and incubated with different concentrations of directly conjugated primary antibody for 15 min at room temperature. Cells were then incubated for 72 h at 37° C. and 5% CO2. At the end of the incubation period, 100 μl CellTiter-Glo® was added to each well and allowed to incubate for 5-10 min at room temperature before reading luminescence in a BMG ClarioSTAR plate reader. Data were then normalized to a maximum lysis control and plotted using graph pad prism software."}, "PC3 tumors": {"test_system": "PC3 tumors", "test": "In vivo PC3 model in NPG mice, ZLA-conjugated EphA2 antibodies", "set-up": "species or system mouse", "settings": "ZLA conjugates in both IgG1 and IgG4 formats; 3 and 6 mg/kg; ~150 mm^3 and ~400 mm^3 PC3 tumors", "method": "This experiment assessed the activity of ZLA-Conjugated EphA2 antibodies AB-010671-ZLA and AB-010699-ZLA in vivo. 2×10^6 PC3 cells were inoculated in 0.2 mL of 1:1 DPBS with Matrigel subcutaneously into each of the male NPG mice. Tumors were allowed to establish and then randomized at an average size of 150 mm^3 with 10 mice per treatment cohort. Treatment started at the day of randomization (Day 0) with weekly intravenous injections of the conjugates at the indicated doses. Body weight as well as tumor sizes were monitored twice weekly. Study was ended at day 35 after 5 doses. At endpoint, mice were euthanized, and tumors excised and weighted.\nThe assay was repeated with AB-010699 and AB-010671 in both IgG1 and IgG4 formats at 1, 3, and 6 mg/kg, AB-010016, and vehicle and isotype controls in mice carrying PC3 tumor cells measuring ˜150 mm^3 or ˜400 mm^3. […] FIG. 60B and FIG. 61B show the body weight of the mice over the course of the studies."}, "PC3-KILR cells": {"test_system": "PC3-KILR cells", "test": "ADCC (KILR target cells, NK92 CD16 chimera effector cells)", "assay_type": "cell-based, human", "method": "as §1"}, "[5]": {"target": "T1, extracellular domain of human EphA2 (25-534) (Homo sapiens, UniProt P29317)", "T1 construct": "extracellular domain of human EphA2 (25-534) with a C-terminal HIS tag; purchased R&D Systems 3035-A2", "T1 sequence (P29317 25-534)": "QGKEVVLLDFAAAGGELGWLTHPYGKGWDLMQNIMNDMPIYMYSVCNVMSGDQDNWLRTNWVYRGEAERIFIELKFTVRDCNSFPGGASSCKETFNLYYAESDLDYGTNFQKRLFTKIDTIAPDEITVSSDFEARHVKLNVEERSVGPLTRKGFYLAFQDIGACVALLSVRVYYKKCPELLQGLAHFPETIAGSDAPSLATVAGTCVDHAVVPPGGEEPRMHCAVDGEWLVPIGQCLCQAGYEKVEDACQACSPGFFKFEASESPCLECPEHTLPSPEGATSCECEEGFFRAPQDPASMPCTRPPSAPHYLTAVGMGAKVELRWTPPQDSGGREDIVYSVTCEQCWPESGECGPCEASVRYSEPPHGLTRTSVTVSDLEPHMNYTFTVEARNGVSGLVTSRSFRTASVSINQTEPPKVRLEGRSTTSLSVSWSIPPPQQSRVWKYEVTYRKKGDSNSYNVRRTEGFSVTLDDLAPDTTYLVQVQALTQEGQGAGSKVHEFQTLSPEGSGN", "test": "Epitope binning by bio-layer interferometry (Octet, in-tandem)", "assay_type": "binding", "method": "Epitope binning was performed using an Octet Red 96E instrument (Sartorius) using the in-tandem format. In this format, antigen is captured on a biosensor tip, a first antibody (or other binding partner) is bound to saturation, and subsequently the ability of a second antibody (or binding partner) known to recognize the antigen is assessed. If substantial binding by the second species is no longer observed, it is supportive that simultaneous binding is sterically hindered (i.e., the second species is “blocked” by pre-saturation of the 1st) and that the two may bind overlapping epitopes. If, however, substantial binding of the second species is observed, despite saturation of the first, it is supportive that the two bind non-overlapping epitopes. Groups of antibodies that block one another can be considered to populate the same epitope bin.\nThe fourth antibody Fv region (AB-008873) was discovered via Atreca's Immune Repertoire Capture (IRC™). Antibodies were produced with mouse IgG2a constant regions. The natural ligand tested was EphrinA1 fused to Fc (Acro, EF1-H5251). Antigen immobilized on the biosensor was the extracellular domain of human EphA2 (25-534) with a C-terminal HIS tag (R&D Systems, 3035-A2) and captured using Ni-NTA tips (Sartorius, 18-5102). Protein solutions were made in 1× Kinetics buffer (Satorius, 18-1092) supplemented with 2.5 mM Imidazole to reduce non-specific binding. Each pairwise interaction was assessed in both orders of addition, and controls for binding in the absence of antigen or with antigen but without a first binding species included. Binning indicated the five molecules populated only two Bins. The first bin contains molecules AB-008873 and AB-010018 and was interpreted to represent epitopes on the membrane proximal fibronectin domain of EphA2 based on the reported epitope location of DS-8895a (Hasegawa, J. et al., Novel anti-EPHA2 antibody, DS-8895a for cancer treatment. Cancer Biology and Therapy, 17(11), 1158-1167 (2016)). The second bin contains molecules AB-010017. AB-010016, and EphrinA1-Fc and was interpreted to represent epitopes on the ligand binding domain (Peng, L. et al., Structural and functional characterization of an agonistic anti-human EphA2 monoclonal antibody. Journal of Molecular Biology, 413(2), 390-405 (2011); Geddie, M. L. et al., Improving the developability of an anti-EphA2 single-chain variable fragment for nanoparticle targeting. MAbs, 9(1), 58-67 (2017)). FIG. 5, Tables 41-42. Referring to FIG. 5, the FN2 location in the first bin is inferred from domain deletion data reported in Hasegawa et al., 2016, FIG. 1, noting that the reported MMP cleavage sites are (385/395/432/435)."}},
  "note": "Residue numbers refer to the chain shown, from its start. “Also recorded” adds a separate entry of the source.",
  "data": [
    {"molecule": "B1", "values": [
      {"measurement": "binding to A549 cells (in words)", "setting": "A549 cells [1]", "result": "less than that of AB-008873; also recorded: little binding and ADCC activity"},
      {"measurement": "ADCP activity on A549 cells (in words)", "setting": "A549 cells [2]", "result": "less than that of AB-008873; also recorded: some ADCP activity"},
      {"measurement": "ADCC activity on A549 cells (in words)", "setting": "A549 cells [3]", "result": "less than that of AB-008873; also recorded: little binding and ADCC activity"}
    ]},
    {"molecule": "B2", "values": [
      {"measurement": "EC50", "setting": "A549 cells [3]", "result": "~6", "unit": "pM"},
      {"measurement": "ADCC - dAct rel. parent, Trial 1", "setting": "A549 cells [3]", "result": 157.1, "unit": "%"},
      {"measurement": "ADCC - dAct rel. parent, Trial 2", "setting": "A549 cells [3]", "result": 106.7, "unit": "%"},
      {"measurement": "cytotoxic activity of ZLA conjugates (in words)", "setting": "[4]", "result": "higher potency but similar maximum cytotoxicity compared to AB-010361-ZLA and AB-010361-IgG4-ZLA"},
      {"measurement": "anti-tumor activity, repeat study", "setting": "PC3 tumors", "result": "anti-tumor activity"}
    ]},
    {"molecule": "B3", "values": [
      {"measurement": "ADCC potency on PC3-KILR cells (in words)", "setting": "PC3-KILR cells", "result": "highly potent"},
      {"measurement": "fold improvement in ADCC as compared to AB-010018", "setting": "PC3-KILR cells; PC3-KILR cells", "result": 10, "unit": "fold"},
      {"measurement": "EC50", "setting": "A549 cells [3]", "result": "~6", "unit": "pM"},
      {"measurement": "ADCC - dAct rel. parent, Trial 1", "setting": "A549 cells [3]", "result": 161.1, "unit": "%"},
      {"measurement": "ADCC - dAct rel. parent, Trial 2", "setting": "A549 cells [3]", "result": 106.4, "unit": "%"},
      {"measurement": "ADCC activity on A549 cells (in words)", "setting": "A549 cells [3]", "result": "improved ADCC activity"}
    ]},
    {"molecule": "B4", "values": [
      {"measurement": "epitope bin", "setting": "[5]; first bin: membrane proximal fibronectin domain, second bin: ligand binding domain", "result": "second bin"}
    ]},
    {"molecule": "B5", "values": [
      {"measurement": "Octet in tandem binning, Notes/Scoring", "setting": "[5]; label = Analyte 1, Analyte 2 8873-02, NiNTA tip, Ligand R&D ECD-06", "result": "Binding observed"},
      {"measurement": "Octet in tandem binning (blocked / binds)", "setting": "[5]; paired with 8873-2 (column; Bin #1 - FN2)", "result": "binds"},
      {"measurement": "Octet in tandem binning (blocked / binds)", "setting": "[5]; paired with 10016-01 (Bin #2 - LBD)", "result": "blocked"},
      {"measurement": "Octet in tandem binning (blocked / binds)", "setting": "[5]; paired with 10017-01 (Bin #2 - LBD)", "result": "blocked"},
      {"measurement": "Octet in tandem binning (blocked / binds)", "setting": "[5]; paired with 10018-01 (column; Bin #1 - FN2)", "result": "binds"},
      {"measurement": "Octet in tandem binning (blocked / binds)", "setting": "[5]; paired with Ephrin-A1 (Bin #2 - LBD)", "result": "blocked"}
    ]}
  ]
}
